The data set in a line: soluble on expression in E. coli; label from the status in PepcDB or PDB records.
As for “MTATTNESQEIAMTATTADEIPASTEQNLRIVQRVIFPANRDLDTLPLYVDPDTNKLHTSGGGADVQAIGMARKLHPEDILNRGSVQVRRGERLSFGSYFNAFPASYWRKWTIATKTVLHIETEGEGTVIVYRSNARGASQRVDSILVEGPSTNEFELTLAPFGDGGWYWFDLIAGGDGMTLKSAHWAVPDEGRPQGRVTLGVTTFNRADYCLETIKSIDGDAGLREILAELIIVDQGNKKVADQAGFDAVAESMGDQLRIINQGNLGGSGGFARNMYEMVVSDKSDYVMLLDDDIELETEGVMRAVAFADLCRKPTIVGGHMFDMYNKSVLHAYSEVVNFYRFLWGPVEGLGNHDFSTAGLRSTPQLHRRWDADYNGWWMCLIPKTVVETIGLSLPVFIKWDDAEYSLRGRAAGFPTVTLPGAAVWHVSWADKDDSVDWQAYYHERNRLIATLLHSPFPKGGRILRESLNTDVKHLVSMQYYPEQARVMALRDVLAGPDNLHKQLPTTMPKLRAMREEFPDSQVKTDPAAFPEVFRKRPPKKPQSFKQPGALGLLPWAVKTVLKQTLAPVRGTAKAAPEAHVAHQDGKWWSLAHLDSAVVSNADGTGASWHLRNPKMARQLVVESAKLHAQLFSNWETLRAQYREALPEITSMESWRETFEASEPSK”, the “soluble on expression in E. coli” value was “not soluble”.

Turning to “VTGVASAMAERLKEDGNNCFKKERFGAAIDAYTEAIALSPNVPAYWTNRALCHMKRKDWTKVEEDCRKAIQLVHNSVKAHYMLGLALLQKKEFTNGVKELQRALDLGRC”, the “soluble on expression in E. coli” value was “not soluble”.

“MSDKRRYFGTDGVRGKVGQYPITPDFVLKLGWAAGRVLAKQGTRKVIIGKDTRISGYMLESALEAGLAAAGLKATFTGPMPTPAVAYLTQTFRAEAGIVISASHNPYYDNGIKFFSYEGTKLPDDIELAIEAELDKDIECVESAELGKASRMVDAAGRYIEFCKSTFPSKLSLSGLKLVVDCANGATYHIAPNVFRELGAEVIAMGVEPNGLNINDQVGATDVRALQKRVVEEHAHLGLAFDGDGDRIIMVDHLGNKVDGDQIAYIIARDALRRGELKGGVVGTLMTNLGMENGLKQLGIPFVRAAVGDRYVMEKLLEKGWKIGAENSGHVILLDKVTTGDAIVAGLQVLASVVGSEMTLHELAKGMTLYPQVLENVRFAGDNNPLEADAVKAAVSEVEAELGSKGRVLLRKSGTEPLIRVMVEGEDETLVKQSALKIAQAVKDNC”: the “soluble on expression in E. coli” value is recorded as “not soluble”.

As to “MSLNKEFIMKFSLKSLLTIAAAASTLILAGCGEKAVDNNKVKIGVMAGAEAQVAEVAAKVAKEKYNLDVELVTFTDYVTPNAALDDGSIDANAFQHKPYLDKQIADRGYKLAIVGNTFVYPIAGYSKQIKSVDELQDGARIAVPNDPTNLGRSLLLLQQQGLLKLREDVGLLATVRDIVENPKKLEILELDAAQLPRSLDDVALSIINTTYASSINLTPEKDGIFVENKESPYVNILVAREANVNAENVQNFKKAYQTDEVAKAASEIFQGGAVKGWEGGSHHHHHH”, the “soluble on expression in E. coli” value is listed as “soluble”.

“MKNIKKNQVMNLGPNSKLLKEYKSQLIELNIEQFEAGIGLILGDAYIRSRDEGKTYCMQFEWKNKAYMDHVCLLYDQWVLSPPHKKERVNHLGNLVITWGAQTFKHQAFNKLANLFIVNNKKTIPNNLVENYLTPMSLAYWFMDDGGKWDYNKNSTNKSIVLNTQSFTFEEVEYLVKGLRNKFQLNCYVKINKNKPIIYIDSMSYLIFYNLIKPYLIPQMMYKLPNTISSETFLK”: the “soluble on expression in E. coli” value is “soluble”.

With “MQVIHQYSNKGGKYQNRYDVSILVNGLPLVHVELKKRGVAIREAFNQIKRYKRDSFSAEDGLFDFVQIFVISNGTSSKYYSNTTRIAQLEKNHKADTFEFTNYWADSKNHNIEDLMDFAKAFFAKRSLLNVLTCYCVFTSEEVLLVMRPYQIVAAERILEKIKTAQNSKTKNQSKGYIWHTTGSGKTLTSFKSATLAKELESVSKVLFVVDRKDLDYQTMKEYDKFQKDCANSNTSTKILKEQLEDSNAKIIITTIQKLDKFVKSHKGHAIFNEEVVMIFDECHRSQLGSMHQAITKAFKKYHLFGFTGTPIFAANCDKNNPLGTTEQKFGKCLHQYTIIDAIRDKNVLPFRVEYHNTIKAKEDIKDNKVRAVDEKNALLDTRRIKEITKCILERFNQATKNKKFNSILACSSIEALKKYYQAFKEEKHDLKIAAIFSYSANEEIDTLEDENNESACRLDKSSRDFLEGAIADYNGMFGVSFDTSDQKFQSYYKDLSQKMKERKIDLLMVVNMFLTGFDATRLNTLWVDKNLKYHGLIQAFSRANRILDSVKTHGNIVCFRDLEQDLNDALMLFGNKDAQSIALLRKYEDYLKGYTDNNKEYEGYEGLIKRLLTEFPLKEPIVSESQKKDFIKLFGKILKLENILNSFENFKKDDYINPRDFQDYQSKYLDFYDAMRSEKGKDKEEINDDLIFEIELIKQVEVNIDYILNLIEEFAKEHGVEIQGVKTKIEPIINSSIELRNKKDLIMDFIDKYNKDQEVHAHFQDYIHQKREEEFQNIIEENRLNEEKAYSFMQHAFKGGEISFSGTEFPKIIEEKPSMFGKNSRYQEVKEKVAASLSRFFHRFCDLTSAIFKKNEVKKDEVNEK”, the “soluble on expression in E. coli” value was “not soluble”.

Consider “MGSDKIHHHHHHMLYQLHEMQRAFLRPLAAFTDASSQLFTHPYSPLAYMPMSRQLAAGCELVHRIGKEYQKPAWNLPATEIQGKRVAVIEAVVLDKPFCRLVHFQRDVRRTAGRADPRVLLVAPLSGHHATLLRDTVRALLPAHDVYVTDWVDARMVPQDAGPFHLDDYVRYIQAFLRHLGPDTHVISVCQPTVPVLAAISLMASANDPCQPRSMVMMGGPIDPRESPTQVNRLATTKPYAWFESQLIHAVPAPYPGAGRRVYPGFLQHAGFMAMNPDRHLKSHYDFYLDLLRGDDGDAEAHRRFYDEYNAVLDMPAEFYLDTIRTVFQEWLPGGTWEIDGQLVRPADIRKTSLLTVEGELDDISGQGQTRAAIKLCSGIPAARKSHYTAVGCGHYGIFSGRRWRELICPKIAAFIRQS”, for which the “soluble on expression in E. coli” value is “not soluble”.

Turning to “MHMSEANHKNIVVVGAGIIGTSVATMLSKVSPNWHIDMFERLEGAGIESSNENNNAGTGHAALCELNYTVEQDDGSIDASKAQEINEQFELSRQFWGNLVKNGDISNPEEFIQPLPHISFVMGPTNVNFLRKRYETLKTLPMFDTIEYTEDMETMRKWMPLMMENREPGHQMAASKIDEGTDVNYGALTRKLAHYLEQKSNVSLKYNHDVVDLTQREDGKWEVVVENRETKEKVTKIADKVFIGAGGHSIPLLQKSGVKQREHLGGFPISGQFLRCTNPDIIKQHAAKVYSKEPQGKPPMTVPHLDTRYINGKQTLLFGPYANIGPKFLKFGSNLDLFESIKPYNITTMLASAVKNVPLIKYSIDQMIKTKEGCMNYLRTFIPDAKDEDWELYTAGKRVQVIKDSEQHGKGFVVFGTEVVNSDDNSMIALLGESPGASTSLSVVLEVLEKNFADDKEAWEPVVKEMVPTYGRSLINDEKLMRETRRETSKNLHLNRMAGDPLEHHHHHH”, the “soluble on expression in E. coli” value is recorded as “soluble”.

“MAVEEFNQNLNEIMKFKECNITVDTCVVIDGRITELISDGTIEKCTIIVPEAVISELEAQANKGREIGYFGIEELKKLVKVAKENEMVLEYYGERPSTGEVSLAKAGEIDAMIRKVAKDTNSILFTSDRIQYNLAIAQNINAHFLKVHEEKVDLKLV”: the “soluble on expression in E. coli” value is “not soluble”.

“MSEAPATEHGQCLCGAVGFTATLGAREFGVCHCSMCRRWSGGAFMAVECTDIAFENEQRLGVYSSSKWGERCFCKNCGSTLVWRSKDGKHFAVSLQAFDKPSSFTFVQQIFTDEKPSSYSFAQTTQNMTGPEFIAMITSAEH”: the “soluble on expression in E. coli” value is given as “not soluble”.

On to “MGSSHHHHHHGKTIFVIVPTNEEQVAFLEALAKQDELNFDWQNPPTEPGQPVVILIPSDMVEWFLEMLKAKGIPFTVYVEEGGSENLYFQGGGGGGRRGFTETVSPVAGFHIFTLFLLRELIEPWSQGQVRAQAARAREAQRRSFTTDIAMQYREKLD”, for which the “soluble on expression in E. coli” value is reported as “soluble”.

“MGSDKIHHHHHHMLESYITVKQDGFSEIEIKKSRFICSVKRVTSEEEAKAFIAAIKKEHWKANHNCSAFVIGEKNDIQRSSDDGEPSGTAGVPMLEVLKKKELINVVAVVTRYFGGIKLGTGGLIRAYSHALSHTLDEIGLVIGKLQQELLITIAYPLLGKAQAFLEHSPYTLKETIYTESIQLICLVDEQATETFIAEMTDLLNGQLTIEKGATSYHELPFNEKGAQANDI”: the “soluble on expression in E. coli” value was “not soluble”.

In the case of “MSYNGSYHQNHHSTLQVKSKFDSEWRRFSIPMHSASGVSYDGFRSLVEKLHHLESVQFTLCYNSTGGDLLPITNDDNLRKSFESARPLLRLLIQRRGESWEEKYGYGTDSDKRWKGISSLMAQKPPKRSYSISNPEDFRQVSAIIDVDIVPEAHRRVRLCKHGQERPLGFYIRDGTSVRVTERGVVKVSGIFISRLVDGGLAESTGLLGVNDEVLEVNGIEVLGKTLDQVTDMMVANAHNLIITVKPANQRNTLSRGPSQQGTPNASEMSAATAAATGGIQRPMKMNGSSDGSYHPKQHDANDSDSGED”, the “soluble on expression in E. coli” value is on record as “not soluble”.

Take “MGSDKIHHHHHHMVWRDLLEVIYKLDPKPGLGLEIAKHVQPKHLGIIAYLALSCDNLGEALIRYHDFHRLIYDGSPLVVELQGRYGSIRWEATELHPTQLTDEIAIALVIQFLRLFMSHEDVQLHEVRFLNAAPKNIRVYEQYFQCPVRFSQPRTELLIPITEIHKPLSSADHTLQQLLVQQAQALLEQLPNSTQLDQRLQHSILTGLQKNQYQIEYIAAQLGLSVRQLQRHLQQQSTTFQERVQQVRFMLATEYLKDPHLSLQEIALLLCYSEQSAFQRAFKHWTKQTPQQWRDQFLDKE”: the “soluble on expression in E. coli” value is “not soluble”.

Regarding “NENNTVVAETKTSTASETSEPKQVISSKQQLASLYLQAKQSLFKQRALSATMYGLSQKDIGQVISSDMEFYSPENEKQLRAELLSISNTIAGIKLDDADITTKNNQQVMAGLTRYFAGEPNFNIGYIDTWMGLSPFIVNQINGPLIDIPRVMQNDQPITTEKEALDYIVRLGQFDKLAATIIEKQTADAAQNWLPSKVTLQGAIKYLKGFTSGSAEQHPFVNVFREKIEKVDSLTTEQKQSLITQVIAKVSQVVYPAYQSVEKASEQLLSEARSESGIWAQPKGSVYYQDAIKQLGDSELSPTQIHQIGLDEVARISGVMNEILLAQGYTKGTVGERMVALNEEPRFLYEDSIAGREELLSDINGYITEVTAKMAPVFRTTPSYQVEVKSFPVEVQDGAPGGQYTSPAVDGSKPGIYWINLRDMKANPKFGLKTLTYHEANPGHHWQIALNLDQAELPFLRRIAPYNAYTEGWALYSEQVAYELGMYENDPFGDLGRLQAELFRAVRLVVDTGLHDKRWTREQAISYMSEQTGTAESDVVAEIERYMAWPGQALGYKLGMLKILSLREQAKARLGDKFDLAEFHDVVLLNGAVPMAVLSRNVNHWLDNK”, the “soluble on expression in E. coli” value is recorded as “soluble”.

For “MADIAILVAEEYERRMKHTTVGSRSSPVEFDWWKIIPAKMTIAFDKMKIESLKKNFEAKSEFALAISHGFFSA”, the “soluble on expression in E. coli” value is listed as “not soluble”.

For the sequence “MESGVPLVVVLRDVLEYVDDTSEAQYAINTDGVLVNGDSVGDVNRPIGMFDILAFPDRDEYYRVFPDEGGRLGLTEIDADAAGSKLNKVTDKTTVSGGRTQLNFHDGSNLALDEDAYAGGDSVVVDTDTNEIVAHFQYEEGALVTAVAGQHAGDIGEIAEINVQPGSASNTVRVDDENGGFETIAEYVVVIDENFLEHHHHHH”, the “soluble on expression in E. coli” value is “soluble”.

Consider “TPTRFLVAFDGSATSRKTVEMVSRSPLLQGMQAHVLTAGSDAGEARQALQWAREQLAQGGFDAITHHAAERPADALAAYAGQHGIDMLVMGAYGHSRIRQLVLGSTTTEILSRVSLAVLILR”, for which the “soluble on expression in E. coli” value is “not soluble”.

For the origin of these results see the DeepSol protein solubility set.
